Measured values reported in patent publication EP4796128A1, “ANTI-C-MET ANTIBODY-DRUG CONJUGATE COMPRISING CAMPTOTHECIN DERIVATIVE” (Celltrion, Inc., priority 2023, dated 2025).
Like-named read-outs stand apart in the source and are kept apart here. Non-standard residues stand in square brackets, D forms with d. Residues, ends and D or L forms follow the SMILES beside them. *: point of attachment. Dolaproine = CO[C@@H]([C@@H]1CCCN1)[C@@H](C)C(=O)O; Dil = CC[C@H](C)[C@H](NC)[C@@H](CC(=O)O)OC; X1 = C[C@@H](N*)[C@@H](O)c1ccccc1; NMeV = CN[C@H](C(=O)O)C(C)C

Legend:
SNU-5 = experiment: In-vitro cell viability assay (CellTiter-Glo); assay type: cell-based; conditions: Homo sapiens
NCI-H1573 = experiment: In-vitro cell viability assay (CellTiter-Glo); assay type: cell-based; conditions: Homo sapiens
T47D = experiment: cells; assay type: cell-based; conditions: Homo sapiens, 144 h
HT29 = experiment: In-vitro cell viability assay (CellTiter-Glo); assay type: cell-based; conditions: Homo sapiens, HT-29, 144 h
NCI-H1975 = experiment: In-vitro cell viability assay (CellTiter-Glo); assay type: cell-based; conditions: Homo sapiens
[1] = system: NCI-H441 human lung cancer xenograft; experiment: NCI-H441 human lung cancer xenograft model; assay type: in vivo, BALB/c nude mice; conditions: 3 mg/kg i.v. QW × 2 weeks
Experimental: NCI-H441 tumor cells (ATCC, Catalog No. HTB-174) were maintained in vitro in RPMI 1640 medium supplemented with 10% FBS and 1% antibiotic-antimycotic at 37°C and 5% CO2 in air. Tumor cells NCI-H441 were routinely passaged twice a week by treatment with trypsin-EDTA. The cells with exponential growth were harvested and counted for tumor inoculation.
Mice were randomly assigned to groups of 10 each, and tumor cells were inoculated into the mice according to the experimental conditions shown in Table 19 below. Specifically, NCI-H441 tumor cells (5 × 10^6 cells/mouse) were subcutaneously inoculated into the right flank of each mouse together with 0.2 mL of PBS containing Matrigel (1:1). Treatment was started on day 14 after inoculation, when the mean tumor volume reached 180 mm^3, and the treatment start date was set as day 0. This experiment was performed for 35 days.
Statistical analysis was performed on the data obtained 35 days after the start of the experiment to determine differences in tumor volume and tumor weight between groups. […] All data were analyzed using SPSS 29.0. p < 0.05 was considered statistically significant.

recombinant human c-Met [2] = target: T1, recombinant human c-Met (human, UniProt P08581 25-932); experiment: BLI, antibody as loading sample, human c-Met
T1 construct: Recombinant protein used in ELISA and BLI; also called human c-MET protein; human-derived c-Met protein

recombinant human c-Met [3] = target: T1, recombinant human c-Met; experiment: ELISA on recombinant human c-Met
[4] = target: T2, monkey c-Met (cynomolgus c-Met) (monkey (cynomolgus), UniProt A0A2K5UM36 25-932); experiment: ELISA on monkey (cynomolgus) c-Met
T2 construct: Recombinant protein used in ELISA and BLI; also called monkey-derived c-MET protein; recombinant monkey c-Met

[5] = target: T2, monkey c-Met (cynomolgus c-Met); experiment: BLI, antibody as loading sample, monkey c-Met
c-Met derived from mice = target: T3, c-Met derived from mice (mice, UniProt P16056 25-931, limits assumed); experiment: ELISA, cross-reactivity test with diluted M01
T3 construct: Antigen of the cross-reactivity ELISA; also called mouse c-Met

c-Met derived from dogs = target: T4, c-Met derived from dogs (dogs, UniProt Q75ZY9 25-935, limits assumed); experiment: ELISA, cross-reactivity test with diluted M01
T4 construct: Antigen of the cross-reactivity ELISA; also called dog c-Met

c-Met derived from rats = target: T5, c-Met derived from rats (rats, UniProt P97523 25-935, limits assumed); experiment: ELISA, cross-reactivity test with diluted M01
T5 construct: Antigen of the cross-reactivity ELISA; also called rat c-Met
T5 sequence (P97523 25-935 limits assumed): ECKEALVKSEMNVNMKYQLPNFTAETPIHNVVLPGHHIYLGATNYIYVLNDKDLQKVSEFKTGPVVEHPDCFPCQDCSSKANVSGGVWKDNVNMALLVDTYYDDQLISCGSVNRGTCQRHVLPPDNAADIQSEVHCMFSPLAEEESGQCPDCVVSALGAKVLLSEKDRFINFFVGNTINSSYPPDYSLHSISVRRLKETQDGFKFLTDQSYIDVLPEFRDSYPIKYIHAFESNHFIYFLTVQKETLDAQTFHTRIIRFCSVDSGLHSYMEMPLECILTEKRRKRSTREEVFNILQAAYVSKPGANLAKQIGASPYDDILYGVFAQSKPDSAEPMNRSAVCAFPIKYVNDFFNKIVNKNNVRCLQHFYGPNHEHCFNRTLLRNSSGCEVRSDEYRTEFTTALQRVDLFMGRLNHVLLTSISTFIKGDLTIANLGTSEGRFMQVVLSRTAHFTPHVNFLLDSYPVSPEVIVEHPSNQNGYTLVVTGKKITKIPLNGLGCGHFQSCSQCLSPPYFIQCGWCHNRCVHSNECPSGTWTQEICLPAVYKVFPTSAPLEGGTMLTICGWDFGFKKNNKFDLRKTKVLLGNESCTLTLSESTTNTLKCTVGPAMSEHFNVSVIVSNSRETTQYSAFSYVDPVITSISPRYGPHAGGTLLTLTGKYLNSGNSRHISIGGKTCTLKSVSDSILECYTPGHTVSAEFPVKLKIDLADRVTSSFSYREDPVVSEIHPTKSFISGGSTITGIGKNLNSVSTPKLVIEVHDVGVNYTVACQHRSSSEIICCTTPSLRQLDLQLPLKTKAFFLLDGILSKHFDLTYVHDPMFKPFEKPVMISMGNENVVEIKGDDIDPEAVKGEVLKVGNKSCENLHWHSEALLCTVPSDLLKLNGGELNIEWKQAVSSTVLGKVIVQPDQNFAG

T2 sequence (A0A2K5UM36 entry or part of it limits assumed, form in doubt): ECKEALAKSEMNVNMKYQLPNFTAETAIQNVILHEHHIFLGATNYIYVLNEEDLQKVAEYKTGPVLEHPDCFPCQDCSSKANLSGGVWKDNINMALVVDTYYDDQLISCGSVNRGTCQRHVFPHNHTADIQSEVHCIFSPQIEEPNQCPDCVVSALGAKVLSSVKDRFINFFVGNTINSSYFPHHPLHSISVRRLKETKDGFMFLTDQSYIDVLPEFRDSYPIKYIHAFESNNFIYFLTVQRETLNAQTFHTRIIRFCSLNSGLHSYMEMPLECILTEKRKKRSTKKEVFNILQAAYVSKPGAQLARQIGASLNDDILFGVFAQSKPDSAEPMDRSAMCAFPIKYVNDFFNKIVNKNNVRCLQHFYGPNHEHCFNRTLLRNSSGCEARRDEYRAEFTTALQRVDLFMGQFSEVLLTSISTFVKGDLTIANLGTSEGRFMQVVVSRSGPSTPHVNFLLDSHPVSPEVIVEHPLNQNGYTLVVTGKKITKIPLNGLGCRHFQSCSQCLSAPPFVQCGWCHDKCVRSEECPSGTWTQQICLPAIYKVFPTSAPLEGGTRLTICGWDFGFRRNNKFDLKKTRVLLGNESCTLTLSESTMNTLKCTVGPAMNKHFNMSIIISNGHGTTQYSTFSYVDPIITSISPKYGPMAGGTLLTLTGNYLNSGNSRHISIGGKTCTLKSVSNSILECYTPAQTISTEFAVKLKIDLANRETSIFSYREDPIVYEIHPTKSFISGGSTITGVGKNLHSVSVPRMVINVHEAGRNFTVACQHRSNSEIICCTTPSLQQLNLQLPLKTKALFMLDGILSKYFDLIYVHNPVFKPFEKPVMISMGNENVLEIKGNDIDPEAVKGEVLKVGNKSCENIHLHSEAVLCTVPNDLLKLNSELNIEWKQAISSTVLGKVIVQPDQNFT
T1 sequence (P08581 25-932 limits assumed): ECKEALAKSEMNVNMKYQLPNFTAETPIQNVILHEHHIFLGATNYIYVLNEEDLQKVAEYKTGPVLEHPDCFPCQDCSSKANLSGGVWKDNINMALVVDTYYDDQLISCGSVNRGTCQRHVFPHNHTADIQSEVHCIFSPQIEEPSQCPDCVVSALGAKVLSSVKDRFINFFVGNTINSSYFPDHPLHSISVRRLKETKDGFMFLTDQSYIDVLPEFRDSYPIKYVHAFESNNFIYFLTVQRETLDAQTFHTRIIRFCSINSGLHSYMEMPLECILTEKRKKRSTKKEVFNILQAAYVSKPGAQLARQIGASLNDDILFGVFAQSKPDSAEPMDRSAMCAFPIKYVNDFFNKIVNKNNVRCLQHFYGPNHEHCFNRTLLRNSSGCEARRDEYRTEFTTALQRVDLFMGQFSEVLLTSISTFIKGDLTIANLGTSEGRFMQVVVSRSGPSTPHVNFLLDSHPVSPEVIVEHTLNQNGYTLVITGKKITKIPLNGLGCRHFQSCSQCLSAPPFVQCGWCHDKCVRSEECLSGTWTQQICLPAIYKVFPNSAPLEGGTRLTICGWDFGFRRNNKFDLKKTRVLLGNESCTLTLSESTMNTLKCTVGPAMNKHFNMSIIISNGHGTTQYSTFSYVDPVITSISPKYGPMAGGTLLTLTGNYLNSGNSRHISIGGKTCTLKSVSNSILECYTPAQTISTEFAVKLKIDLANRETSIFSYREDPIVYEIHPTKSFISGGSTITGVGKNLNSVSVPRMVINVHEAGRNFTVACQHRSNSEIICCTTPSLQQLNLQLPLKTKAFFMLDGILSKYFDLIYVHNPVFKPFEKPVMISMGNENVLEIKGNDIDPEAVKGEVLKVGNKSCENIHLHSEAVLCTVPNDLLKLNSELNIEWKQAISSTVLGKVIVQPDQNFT
T4 sequence (Q75ZY9 25-935 limits assumed): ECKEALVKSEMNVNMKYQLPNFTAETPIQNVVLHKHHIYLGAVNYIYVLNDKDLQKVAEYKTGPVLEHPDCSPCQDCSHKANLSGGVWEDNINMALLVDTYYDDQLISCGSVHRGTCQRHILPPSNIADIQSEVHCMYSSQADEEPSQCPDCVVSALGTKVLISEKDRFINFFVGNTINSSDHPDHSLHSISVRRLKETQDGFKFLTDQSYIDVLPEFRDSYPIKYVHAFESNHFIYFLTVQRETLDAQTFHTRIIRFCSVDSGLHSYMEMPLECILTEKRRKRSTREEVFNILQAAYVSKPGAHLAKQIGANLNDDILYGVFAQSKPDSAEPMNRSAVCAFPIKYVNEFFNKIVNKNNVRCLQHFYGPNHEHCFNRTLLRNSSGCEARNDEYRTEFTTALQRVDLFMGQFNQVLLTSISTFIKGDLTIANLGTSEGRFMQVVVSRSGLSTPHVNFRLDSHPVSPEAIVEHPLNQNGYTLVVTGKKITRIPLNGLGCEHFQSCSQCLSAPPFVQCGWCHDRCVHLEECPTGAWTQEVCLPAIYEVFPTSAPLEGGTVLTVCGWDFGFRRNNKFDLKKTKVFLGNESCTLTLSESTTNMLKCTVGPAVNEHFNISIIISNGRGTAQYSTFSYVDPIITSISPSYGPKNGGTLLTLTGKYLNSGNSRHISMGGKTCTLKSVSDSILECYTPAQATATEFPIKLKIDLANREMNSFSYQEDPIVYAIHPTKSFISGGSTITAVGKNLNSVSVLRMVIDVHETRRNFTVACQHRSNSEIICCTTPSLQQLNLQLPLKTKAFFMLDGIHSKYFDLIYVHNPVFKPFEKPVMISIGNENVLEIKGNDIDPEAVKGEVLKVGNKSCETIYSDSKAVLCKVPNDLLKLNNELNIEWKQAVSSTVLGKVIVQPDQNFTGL
T3 sequence (P16056 25-931 limits assumed): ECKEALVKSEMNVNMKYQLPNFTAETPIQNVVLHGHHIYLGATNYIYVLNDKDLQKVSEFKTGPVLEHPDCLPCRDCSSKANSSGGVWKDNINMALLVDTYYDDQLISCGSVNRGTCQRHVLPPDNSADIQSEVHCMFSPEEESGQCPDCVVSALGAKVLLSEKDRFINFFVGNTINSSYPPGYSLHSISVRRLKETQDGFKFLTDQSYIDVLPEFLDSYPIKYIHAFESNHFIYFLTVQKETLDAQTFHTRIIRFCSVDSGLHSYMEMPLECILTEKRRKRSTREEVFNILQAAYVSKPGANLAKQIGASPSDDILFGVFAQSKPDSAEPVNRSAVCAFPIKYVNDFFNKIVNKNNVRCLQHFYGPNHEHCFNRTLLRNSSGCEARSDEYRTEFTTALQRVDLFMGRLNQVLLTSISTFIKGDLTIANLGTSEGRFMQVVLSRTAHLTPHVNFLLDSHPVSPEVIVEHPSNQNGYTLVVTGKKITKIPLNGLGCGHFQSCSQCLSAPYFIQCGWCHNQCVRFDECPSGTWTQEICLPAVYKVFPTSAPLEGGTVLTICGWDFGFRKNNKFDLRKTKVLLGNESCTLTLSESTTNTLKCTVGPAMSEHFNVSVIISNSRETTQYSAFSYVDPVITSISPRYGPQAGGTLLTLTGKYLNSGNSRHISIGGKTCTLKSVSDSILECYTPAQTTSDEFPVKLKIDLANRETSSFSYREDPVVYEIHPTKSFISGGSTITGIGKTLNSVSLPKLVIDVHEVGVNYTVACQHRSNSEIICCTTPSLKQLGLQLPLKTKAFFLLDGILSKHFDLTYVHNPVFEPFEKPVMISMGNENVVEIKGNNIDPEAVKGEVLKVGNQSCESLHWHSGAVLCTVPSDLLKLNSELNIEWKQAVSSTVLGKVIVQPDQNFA

With CC[C@H](C)[C@@H]([C@@H](CC(=O)N1CCC[C@H]1[C@H](OC)[C@@H](C)C(=O)N[C@H](C)[C@@H](O)c1ccccc1)OC)N(C)C(=O)[C@@H](NC(=O)[C@@H](NC)C(C)C)C(C)C [MMAE, monomethyl auristatin E, reference compound] (H-[NMeV]V[Dil][Dolaproine]-X1) the IC50 (SNU-5; 144 h, SNU-5, 6 days incubation, read-out: IC50) was 420 pM, the IC50 (NCI-H1573; 144 h, NCI-H1573, 6 days incubation, read-out: IC50) was 420 pM and the IC50 (T47D; 6 days incubation, read-out: IC50) was 510 pM. It also gave an IC50 (HT29; HT29, 6 days incubation, read-out: IC50) of 140 pM and an IC50 (NCI-H1975; 144 h, NCI-H1975, 6 days incubation, read-out: IC50) of 300 pM.

CC[C@@]1(O)C(=O)OCc2c1cc1n(c2=O)Cc2c-1nc1cc3c(c4c1c2[C@@H](NC(=O)[C@@H](C)O)CC4)OCO3 [PBX-7016] showed an IC50 (SNU-5; SNU-5, 144 h) of 5210 pM, an IC50 (NCI-H1573; NCI-H1573, 144 h) of 2550 pM and an IC50 (T47D) of 450 pM. The IC50 (HT29) was 3800 pM and the IC50 (NCI-H1975; NCI-H1975, 144 h) was 9800 pM.

B1: P23-MMAE: isotype ADC: anti-influenza A antibody (Navivumab, P23) with monomethyl auristatin E payload; DAR 3.1 (conjugate, chains of the INN, looked up)
VH: QVQLVQSGAEVKKPGASVKVSCKTSGYSFSTYGVSWVRQAPGQGPEWVGWISAYTGITDYAQKFQGRVTLTTDATTATAFLDLRSLRPDDTATYFCARDKVQGRVEVGSGGRHDYWGQGTLVIVSS
VL: EVVLTQSPGTLALPPGERATLSCRASHRVGSTYIAWYQQKSGQAPRRLIYGASNRATDIPDRFSGSGSGTDFTLTIRRLEPEDSAVYYCQQFSVSPWTFGQGTRVEIK
modifications: MMAE payload, DAR 3.1
With B1 the “Tumor Volume” value ([1]; Day 0, mean ± SEM) was 180 ± 13 mm^3, the “Tumor Volume” value ([1]; Day 4, mean ± SEM) was 208 ± 19 mm^3 and the “Tumor Volume” value ([1]; Day 7, mean ± SEM) was 244 ± 26 mm^3. For the same molecule, the “Tumor Volume” value ([1]; Day 11, mean ± SEM) was 283 ± 36 mm^3, the “Tumor Volume” value ([1]; Day 14, mean ± SEM) was 287 ± 39 mm^3 and the “Tumor Volume” value ([1]; Day 18, mean ± SEM) was 358 ± 66 mm^3. For the same molecule, the “Tumor Volume” value ([1]; Day 21, mean ± SEM) was 396 ± 71 mm^3, the “Tumor Volume” value ([1]; Day 25, mean ± SEM) was 563 ± 93 mm^3 and the “Tumor Volume” value ([1]; Day 28, mean ± SEM) was 708 ± 119 mm^3. For the same molecule, the “Tumor Volume” value ([1]; Day 32, mean ± SEM) was 977 ± 193 mm^3, the TGI ([1]; Day 35) was 26.27% and the “Tumor Weight on Day 35” value ([1]; Day 35) was 1.342 ± 0.247 g. It also gave a T/C ([1]; Day 35, tumor volume vs P23 isotype mAb group) of 76.70% and a T/Cweight ([1]; Day 35, tumor weight vs P23 isotype mAb group) of 80.39%.

B2: anti-c-Met antibody (M01) (antibody, human IgG1, kappa, V domains shown)
VH: QVQLVQSGAEVKKPGASVKVSCKASGYIFTAYTMHWVRQAPGQGLEWMGWIKPNNGLANYAQKFQGRVTMTRDTSISTAYMELSRLRSDDTAVYYCARSEITTEFDYWGQGTLVTVSS
VL: DIVMTQSPDSLAVSLGERATINCKSSESVDSYANSFLHWYQQKPGQPPKLLIYRASTRESGVPDRFSGSGSGTDFTLTISSLQAEDVAVYYCQQSKEDPLTFGGGTKVEIKR
notes: Naked antibody; also called M01 antibody; M01 (Anti-cMet mAb)
In the case of B2, the Kd (recombinant human c-Met [2]) is reported as 605 pM, the koff (recombinant human c-Met [2]) is reported as 4.07e-05 s⁻¹ and the kon (recombinant human c-Met [2]) is reported as 67400 M⁻¹ s⁻¹. The EC50 (recombinant human c-Met [3]) was 140 pM, the EC50 [4] was 140 pM and the Kd [5] was 707 pM. For the same molecule, the koff [5] was 5.69e-05 s⁻¹, the kon [5] was 80500 M⁻¹ s⁻¹ and the binding result (c-Met derived from mice) was “no binding”. B2: no binding (c-Met derived from dogs); no binding (c-Met derived from rats).
